Key:
[1] = target: recombinant 0076 protein (ferritin encoded by mycma_0076) from Mycobacterium abscessus subsp. massiliense GO06 (Mycobacterium abscessus subsp. massiliense GO06); assay: dynamic light scattering; r0076 1 mg/ml in 50 mM NaH2PO4 pH 8.0, 50 mM NaCl; RH converted to mass assuming a spherical particle; 20 to 90°C
[2] = target: recombinant 0076 protein (ferritin encoded by mycma_0076) from Mycobacterium abscessus subsp. massiliense GO06 (Mycobacterium abscessus subsp. massiliense GO06); assay: SEC; Superdex 200 10/300 GL, 50 mM NaH2PO4 pH 8.0, 300 mM NaCl, 1 ml/min, calibrated with molecular weight standards; apparent mass

stoichiometry N [1]: 24 subunits
stoichiometry N [2]: 24 subunits
Substance: recombinant 0076 protein (ferritin encoded by mycma_0076) from Mycobacterium abscessus subsp. massiliense GO06 (natural protein)

— article PMC5992710
